Data taken from patent KR20230078152A (dated 2023).

Biological target: human PSMA (prostate-specific membrane antigen) expressed on LNCaP cells (human, UniProt Q04609 1-750)
Assay: cell-based or functional assay

Chain of human PSMA (prostate-specific membrane antigen) expressed on LNCaP cells (Q04609 whole entry): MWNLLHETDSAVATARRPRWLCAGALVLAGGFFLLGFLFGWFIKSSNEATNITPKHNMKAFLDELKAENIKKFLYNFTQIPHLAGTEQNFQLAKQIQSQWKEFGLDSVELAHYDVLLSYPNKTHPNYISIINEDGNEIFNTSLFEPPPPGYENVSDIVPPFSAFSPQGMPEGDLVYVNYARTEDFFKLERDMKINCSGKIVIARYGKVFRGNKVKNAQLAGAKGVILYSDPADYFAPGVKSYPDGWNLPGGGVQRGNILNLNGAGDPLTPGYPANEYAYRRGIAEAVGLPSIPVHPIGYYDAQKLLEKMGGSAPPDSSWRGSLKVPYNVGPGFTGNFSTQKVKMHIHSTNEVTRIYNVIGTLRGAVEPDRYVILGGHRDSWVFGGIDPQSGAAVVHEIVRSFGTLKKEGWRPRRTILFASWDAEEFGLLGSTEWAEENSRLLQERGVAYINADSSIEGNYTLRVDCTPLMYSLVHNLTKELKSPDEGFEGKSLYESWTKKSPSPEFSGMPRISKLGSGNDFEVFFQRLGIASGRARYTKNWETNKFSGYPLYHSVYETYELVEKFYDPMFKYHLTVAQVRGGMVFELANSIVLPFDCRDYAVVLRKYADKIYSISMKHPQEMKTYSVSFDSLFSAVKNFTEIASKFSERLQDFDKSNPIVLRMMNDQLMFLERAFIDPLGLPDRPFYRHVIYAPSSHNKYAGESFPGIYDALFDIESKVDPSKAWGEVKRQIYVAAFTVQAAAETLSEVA

B1: PSMA 타겟 항체-약물 접합체 (PSMA target antibody-MMAE conjugate) (other, DAR 8.36)
VH: EVQLQQSGPELVKPGASVKISCKASGYAFSSSWMNWVKQRPGQGLEWIGRIYPADGDTNYNGKFKGKATLTADKSSSTAYMQLSSLTSVDSAVYFCARCGWDGGVYYAMDYWGQGTSVTVSS
VL: DIVMTQSPASLAVSLGQRATISCRASKSVTTSGYSYMHWYQQKPGQPPKLLIYLASNLESGVPARFSGSGSGTDFTLNIHPVEEEDAATYYCQHSRELPRTFGGGTKLEIK
modifications: MMAE conjugated through a VC-PAB linker (antibody MMAE Conjugation Kit), DAR 8.36; sites not stated
  cytotoxicity on LNCaP cells (Cell counting kit-8, 72 h), IC50: 0.5 nM
